Measurements reported in patent US9187525B2, “Methods of treating ophthalmic diseases using NPR-B agonists” (Shire Orphan Therapies GmbH, dated 2015).
Numbered stars: 1 amine (or outer) side, 2 acyl side, 3 side chain; on linkers, the order of the positions; unused ones are H or OH. Square brackets hold non-standard residues; d marks the D form. Primed or numbered codes have the meaning given here. Ends that are not written are not given here. * marks the point of attachment. Eal = rac-imidazolidine-2-carboxylic acid, O=C(C1N([*:1])CCN1[*:3])[*:2]; 6182 = 5-Butyl-2H-pyrazole-3-carboxylic acid, CCCCc1cc(C(=O)*)[nH]n1; Pro(trans-4-NH2) = O=C([C@@H]1C[C@@H](N[*:3])CN1[*:1])[*:2]; Pro(trans-4-guanidino) = N=C(N)N[C@H]1CN[C@H](C(=O)O)C1; Sni = (S)-nipecotic acid, O=C([C@H]1CCCN([*:1])C1)[*:2]; Azetidine3carboxylic = O=C(C1CN([*:1])C1)[*:2]; Hyp = O=C(O)[C@@H]1C[C@@H](O)CN1; NMeF = CN[C@@H](Cc1ccccc1)C(=O)O; NMeL = CN[C@@H](CC(C)C)C(=O)O; dDap(Me2)′ = not defined here; AR‑201‑48 = not defined here; AR‑201‑49 = not defined here; AR‑201‑54 = not defined here; Tle = CC(C)(C)[C@H](N)C(=O)O; dNle = CCCC[C@@H](N)C(=O)O; dOrn = NCCC[C@@H](N)C(=O)O; SH‑158 = not defined here; Octanoyl = CCCCCCCC(=O)*; Ac5c = NC1(C(=O)O)CCCC1; dAze = O=C(O)[C@H]1CCN1; Hexanoyl = CCCCCC(=O)*; Occ = octanoic acid; βAla = NCCC(=O)O; Sar = CNCC(=O)O

T1: natriuretic peptide receptor-B (human)
T1 chain: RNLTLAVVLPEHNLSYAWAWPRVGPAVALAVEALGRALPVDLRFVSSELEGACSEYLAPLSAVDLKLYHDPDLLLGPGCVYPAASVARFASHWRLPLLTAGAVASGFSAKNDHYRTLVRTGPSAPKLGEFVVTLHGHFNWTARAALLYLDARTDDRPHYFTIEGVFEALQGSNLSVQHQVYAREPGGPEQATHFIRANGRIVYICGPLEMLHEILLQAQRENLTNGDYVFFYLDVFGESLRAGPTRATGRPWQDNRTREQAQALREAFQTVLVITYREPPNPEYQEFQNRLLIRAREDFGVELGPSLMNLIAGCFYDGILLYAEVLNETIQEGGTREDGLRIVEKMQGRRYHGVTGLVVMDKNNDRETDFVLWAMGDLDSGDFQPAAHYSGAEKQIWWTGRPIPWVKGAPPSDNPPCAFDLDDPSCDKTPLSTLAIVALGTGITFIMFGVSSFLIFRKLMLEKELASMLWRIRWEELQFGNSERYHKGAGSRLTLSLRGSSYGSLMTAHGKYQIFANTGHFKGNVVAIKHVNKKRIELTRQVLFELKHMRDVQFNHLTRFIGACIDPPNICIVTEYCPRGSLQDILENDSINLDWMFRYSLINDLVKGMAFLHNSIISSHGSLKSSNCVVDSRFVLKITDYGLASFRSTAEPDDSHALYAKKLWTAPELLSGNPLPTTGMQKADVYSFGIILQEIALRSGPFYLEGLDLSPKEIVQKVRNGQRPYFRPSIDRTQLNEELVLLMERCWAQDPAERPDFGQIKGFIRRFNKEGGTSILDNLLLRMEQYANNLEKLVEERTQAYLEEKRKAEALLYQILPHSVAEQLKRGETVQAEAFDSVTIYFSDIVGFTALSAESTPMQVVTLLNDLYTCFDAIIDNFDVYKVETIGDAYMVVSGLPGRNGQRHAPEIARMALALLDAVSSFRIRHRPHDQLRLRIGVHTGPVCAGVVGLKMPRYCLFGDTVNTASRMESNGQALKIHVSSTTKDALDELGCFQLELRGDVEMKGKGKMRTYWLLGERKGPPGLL

B1: JAL-1321 (peptide)
peptide: [Occ][Sni]F[dL]L[Pro(trans-4-NH2)](Ac)[NMeL]DRI-NH2
B2: JAL-1315 (peptide)
peptide: XAFRXXXDRI
modifications: Occ-ala-Phe-arg-Dap(Me2)-Hyp-Nml-Asp-Arg-Ile-NH2
B3: JAL-1314 (peptide)
peptide: XAFRLXXDRI
modifications: Occ-ala-Phe-arg-Leu-Hyp-Dap(Me2)-Asp-Arg-Ile-NH2
B4: JAL-0632 (peptide)
peptide: Hexanoyl-A[dA]FGLKLDRI-NH2
B5: JAL-0633 (peptide)
peptide: Hexanoyl-S[dA]FGLKLDRI-NH2
B6: JAL-1291 (peptide)
peptide: [AR‑201‑48][dR]L[Hyp][NMeL]DRI-NH2
modifications: reading uncertain; also: printed as (AR-201-48)-arg-Leu-Hyp-Nml-Asp-Arg-Ile-
B7: JAL-1323 (peptide)
peptide: [Occ][Sni]F[dL]L[Pro(trans-4-NH2)](βAla)[NMeL]DRI-NH2
B8: JAL-1273 (peptide)
peptide: Octanoyl-[Sar]F[dR]L[Hyp][NMeL]DRI-NH2
B9: JAL-1322 (peptide)
peptide: [Occ][Sni]F[dL]L[Pro(trans-4-NH2)](Gly)[NMeL]DRI-NH2
B10: JAL-1319 (peptide)
peptide: Octanoyl-[Sni]F[dNle]L[Pro(trans-4-NH2)][NMeL]DRI-NH2
B11: JAL-1289 (peptide)
peptide: XXFXLXXDRI
modifications: Occ-Sni-Phe-orn(Me2)-Leu-Hyp-Nml-Asp-Arg-Ile-NH2
B12: JAL-1298 (peptide)
peptide: 6182-[dA]F[dR]L[Hyp][NMeL]DRI-NH2
B13: JAL-1324 (peptide)
peptide: XFRLXXDRI
HELM: PEPTIDE1{[CCCCCCCCS(=O)(=O)CCC(=O)[*:2]].F.[dR].L.[Hyp].[meL].D.R.I.[am]}$$$$V2.0; N-terminus assumed
SMILES: CCCCCCCCS(=O)(=O)CCC(=O)N[C@@H](Cc1ccccc1)C(=O)N[C@H](CCCNC(=N)N)C(=O)N[C@@H](CC(C)C)C(=O)N1C[C@H](O)C[C@H]1C(=O)N(C)[C@@H](CC(C)C)C(=O)N[C@@H](CC(=O)O)C(=O)N[C@@H](CCCNC(=N)N)C(=O)N[C@H](C(N)=O)[C@@H](C)CC
B14: JAL-1283 (peptide)
peptide: Octanoyl-[dA]F[dL]L[Hyp][SH‑158]DRI-NH2
modifications: reading uncertain; also: printed as Occ-ala-Phe-leu-Leu-Hyp-(SH-158)-Asp-Arg-Ile-NH2
B15: JAL-1316 (peptide)
peptide: [AR‑201‑54]F[dR]L[Hyp][NMeL]DRI-NH2
modifications: reading uncertain; also: printed as (AR-201-54)-Phe-arg-Leu-Hyp-Nml-Asp-Arg-Ile-NH2
B16: JAL-1292 (peptide)
peptide: [AR‑201‑49]F[dR]L[Hyp][NMeL]DRI-NH2
modifications: reading uncertain; also: printed as (AR-201-49)-Phe-arg-Leu-Hyp-Nml-Asp-Arg-Ile-NH2
B17: JAL-1275 (peptide)
peptide: Octanoyl-[Azetidine3carboxylic]F[dR]L[Hyp][NMeL]DRI-NH2
B18: JAL-1318 (peptide)
peptide: Octanoyl-[Sni]F[dOrn]L[Pro(trans-4-NH2)][NMeL]DRI-NH2
B19: JAL-1269 (peptide)
peptide: Octanoyl-[dA][NMeF][dOrn]L[Hyp][NMeL]DRI-NH2
B20: JAL-1287 (peptide)
peptide: XXFXLXXDRI
modifications: Occ-Sni-Phe-dap(Me2)-Leu-Hyp-Nml-Asp-Arg-Ile-NH2
B21: JAL-1271 (peptide)
peptide: Octanoyl-[dA]F[dR]L[Pro(trans-4-guanidino)]LDRI-NH2
B22: JAL-1317 (peptide)
peptide: Octanoyl-[Sni]F[dR]L[Pro(trans-4-NH2)][NMeL]DRI-NH2
B23: JAL-1274 (peptide)
peptide: Octanoyl-[dAze]F[dR]L[Hyp][NMeL]DRI-NH2
B24: JAL-1272 (peptide)
peptide: Octanoyl-[dA]F[dL]L[Pro(trans-4-guanidino)]LDRI-NH2
B25: JAL-1296 (peptide)
peptide: Octanoyl-[dA]F[dL]L[Pro(trans-4-NH2)][NMeL]DRI-NH2
B26: JAL-1320 (peptide)
peptide: [Occ][Sni]FGL[Pro(trans-4-NH2)][NMeL]DRI-NH2
B27: JAL-0634 (peptide)
peptide: Hexanoyl-P[dA]FGLKLDRI-NH2
B28: JAL-1305 (peptide)
peptide: Octanoyl-[dA]F[dR]L[Hyp][NMeL]DR[Tle]-NH2
B29: JAL-1302 (peptide)
peptide: Octanoyl-[Sni]F[dL]L[Hyp][NMeL]DRI-NH2
B30: JAL-1270 (peptide)
peptide: Octanoyl-[dA]FGL[Pro(trans-4-guanidino)]LDRI-NH2
B31: JAL-1282 (peptide)
peptide: Octanoyl-[dA]FGL[Eal][NMeL]DRI-NH2
B32: JAL-1295 (peptide)
peptide: Octanoyl-[Sni]F[dL]L[Pro(trans-4-NH2)][NMeL]DRI-NH2
B33: JAL-1294 (peptide)
peptide: [AR‑201‑49]F[dL]L[Hyp][NMeL]DRI-NH2
modifications: reading uncertain; also: printed as (AR-201-49)-Phe-leu-Leu-Hyp-Nml-Asp-Arg-Ile-NH2
B34: JAL-0635 (peptide)
peptide: Hexanoyl-[dA][dA]FGLKLDRI-NH2
B35: JAL-1306 (peptide)
peptide: Octanoyl-[dA]F[dR]L[Hyp][NMeL]DR[Ac5c]-NH2
B36: JAL-1293 (peptide)
peptide: [AR‑201‑48][dL]L[Hyp][NMeL]DRI-NH2
modifications: reading uncertain; also: printed as (AR-201-48)-leu-Leu-Hyp-Nml-Asp-Arg-Ile-
B37: JAL-1288 (peptide)
peptide: XAFXLXXDRI
modifications: Occ-ala-Phe-orn(Me2)-Leu-Hyp-Nml-Asp-Arg-Ile-NH2
B38: JAL-1281_01 (peptide)
peptide: Octanoyl-[dA]F[dL]L[Eal][NMeL]DRI-NH2
B39: JAL-1325 (peptide)
peptide: [Occ][Sni]F[dDap(Me2)′]L[Pro(trans-4-NH2)][NMeL]DRI-NH2
B40: JAL-1297 (peptide)
peptide: Octanoyl-[Sni]F[dR]L[Hyp][NMeL]DRI-NH2
B41: JAL-1284 (peptide)
peptide: Octanoyl-[dA]F[dR]L[Hyp][SH‑158]DRI-NH2
modifications: reading uncertain; also: printed as Occ-ala-Phe-arg-Leu-Hyp-(SH-158)-Asp-Arg-Ile-NH2

Target: T1, natriuretic peptide receptor-B
Experiment: cell-based or functional assay

B1 and B2 cannot be ordered by “EC50 group, cGMP in GTM-3 cells” value: no more than 5 µM for the first, no more than 15 µM for the second.

B3 and B4 cannot be ordered by “EC50 group, cGMP in GTM-3 cells” value: no more than 5 µM for the first, no more than 15 µM for the second.

B5 and B6 cannot be ordered by “EC50 group, cGMP in GTM-3 cells” value: no more than 15 µM for the first, no more than 15 µM for the second.

B7 and B8 cannot be ordered by “EC50 group, cGMP in GTM-3 cells” value: no more than 1 µM for the first, no more than 5 µM for the second.

B9 and B10 cannot be ordered by “EC50 group, cGMP in GTM-3 cells” value: no more than 1 µM for the first, no more than 5 µM for the second.

B11 and B12 cannot be ordered by “EC50 group, cGMP in GTM-3 cells” value: no more than 1 µM for the first, no more than 5 µM for the second.

B13 and B14 cannot be ordered by “EC50 group, cGMP in GTM-3 cells” value: no more than 5 µM for the first, no more than 1 µM for the second.

B15 and B16 cannot be ordered by “EC50 group, cGMP in GTM-3 cells” value: no more than 5 µM for the first, no more than 5 µM for the second.

B17 and B18 cannot be ordered by “EC50 group, cGMP in GTM-3 cells” value: no more than 5 µM for the first, no more than 1 µM for the second.

B19 and B20 cannot be ordered by “EC50 group, cGMP in GTM-3 cells” value: no more than 5 µM for the first, no more than 1 µM for the second.

B21 and B22 cannot be ordered by “EC50 group, cGMP in GTM-3 cells” value: no more than 5 µM for the first, no more than 1 µM for the second.

B23 and B24 cannot be ordered by “EC50 group, cGMP in GTM-3 cells” value: no more than 5 µM for the first, no more than 5 µM for the second.

B25 and B26 cannot be ordered by “EC50 group, cGMP in GTM-3 cells” value: no more than 1 µM for the first, no more than 1 µM for the second.

B27 and B28 cannot be ordered by “EC50 group, cGMP in GTM-3 cells” value: no more than 15 µM for the first, no more than 1 µM for the second.

B29 and B30 cannot be ordered by “EC50 group, cGMP in GTM-3 cells” value: no more than 1 µM for the first, no more than 5 µM for the second.

B31 and B32 cannot be ordered by “EC50 group, cGMP in GTM-3 cells” value: no more than 15 µM for the first, no more than 1 µM for the second.

B33 and B34 cannot be ordered by “EC50 group, cGMP in GTM-3 cells” value: no more than 1 µM for the first, no more than 15 µM for the second.

B35 and B36 cannot be ordered by “EC50 group, cGMP in GTM-3 cells” value: no more than 5 µM for the first, no more than 15 µM for the second.

B37 and B38 cannot be ordered by “EC50 group, cGMP in GTM-3 cells” value: no more than 1 µM for the first, no more than 5 µM for the second.

B39 and B40 cannot be ordered by “EC50 group, cGMP in GTM-3 cells” value: no more than 1 µM for the first, no more than 1 µM for the second.

In the case of B41, the “EC50 group, cGMP in GTM-3 cells” value is reported as no more than 1 µM.
